Experimental findings from PMC10578488 are described below.

The target in this experiment is recombinant PRMT5/MEP50 complex (human) (UniProt O14744). Kind of experiment: SEC; PRMT5/MEP50 and purified U7 6S combined (molar ratio 4:8 or 4:2) in 20 mM Hepes pH 7.7, 100 mM NaCl, 2 mM DTT, 1 h on ice; Superose 6. (In general: SEC sorts molecules by how far they enter the pores of the column.)
recombinant PRMT5/MEP50 complex (human), sequence (O14744 whole entry, chain 1 of 2): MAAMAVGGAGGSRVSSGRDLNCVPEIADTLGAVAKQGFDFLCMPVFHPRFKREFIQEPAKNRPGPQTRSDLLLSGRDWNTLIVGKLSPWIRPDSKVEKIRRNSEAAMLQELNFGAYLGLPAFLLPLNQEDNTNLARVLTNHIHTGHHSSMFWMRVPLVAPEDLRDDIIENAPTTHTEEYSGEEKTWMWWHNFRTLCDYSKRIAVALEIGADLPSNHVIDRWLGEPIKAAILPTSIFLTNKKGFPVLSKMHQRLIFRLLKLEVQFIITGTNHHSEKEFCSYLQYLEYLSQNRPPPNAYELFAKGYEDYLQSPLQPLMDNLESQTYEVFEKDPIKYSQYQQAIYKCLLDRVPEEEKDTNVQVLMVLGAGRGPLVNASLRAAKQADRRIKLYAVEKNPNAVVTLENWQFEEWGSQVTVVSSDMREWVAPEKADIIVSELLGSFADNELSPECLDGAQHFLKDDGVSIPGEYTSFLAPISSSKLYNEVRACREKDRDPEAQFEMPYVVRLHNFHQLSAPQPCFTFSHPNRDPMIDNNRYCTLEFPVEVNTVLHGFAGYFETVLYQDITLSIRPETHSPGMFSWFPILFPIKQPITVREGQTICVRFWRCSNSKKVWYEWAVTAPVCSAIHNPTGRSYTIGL
recombinant PRMT5/MEP50 complex (human), sequence (Q9BQA1 whole entry, chain 2 of 2, further chain): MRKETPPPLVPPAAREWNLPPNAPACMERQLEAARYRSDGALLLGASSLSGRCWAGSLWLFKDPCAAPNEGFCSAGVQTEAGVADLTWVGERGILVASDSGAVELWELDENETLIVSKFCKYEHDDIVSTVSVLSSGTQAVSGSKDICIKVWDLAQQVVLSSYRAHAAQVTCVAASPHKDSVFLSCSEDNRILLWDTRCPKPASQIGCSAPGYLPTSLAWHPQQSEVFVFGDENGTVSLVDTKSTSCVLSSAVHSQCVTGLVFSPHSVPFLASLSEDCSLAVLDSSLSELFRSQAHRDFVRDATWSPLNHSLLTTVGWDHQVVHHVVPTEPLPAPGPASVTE

Turning to “U7 6S complex (MBP-Lsm10/11ΔNL heterodimer, SmE/F/G heterotrimer and pICln) (from UniProt Q969L4 1-123; P83369 153-360; P62304 1-92; P62306 1-86; P62308 1-76; Q61189 1-236)”, the stoichiometry N (U7 6S per PRMT5/MEP50 heterooctamer) stood at 1.
